This data set is described as follows: label from the status in PepcDB records.
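Further: failed if final PepcDB status was selected cloned or expressed and not failed if soluble or beyond.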

Turning to “MVALRGKEIDAFLARPDAGRPIVLLYGPDAGLVRERADALIASAVDDPNDPFSLVRLDGDELSAEPSRLVDEAMTVPLFGGQRAIRVRAGSRSFASGIDTLAEMGVKDCRIVIEAGELRPESPLRKACERAKTAVAIGCYPDTERDLAKLMDDELRIANLRIAQDARAALMSFLGGDRQASRNELRKLTLYAHGKGEITLEDVMAVVADASELKLDPIVDGAFAGRPDIVETEFAKAMIAGTYPGVIISAAQRQAAWLHKSALAIADGQPASAVLDGGFPRLHFSRKPAVETALRNFSVARLAAIIEQLATAALDTRKQSTLAAAIAQRTLMAIAANAKRRGLEHHHHHH”, the protein production entry is on record as “failed”. In the case of “MVANLPALFSLGVFVGVILLIMSEKIHLTIAAFLGALILVFTHVITLKEGIDYISQSYATLALFFGVMVLVRSFEPTKIFEYLATQMVLLAKGSGKLLMLGVIAITTPICAVLPNATTVMLLAPLIPPLAQEIGVDFVPILILMVFVANSAGLLTLVGDPATFIVGDAINISFNDYLFKLSFMGVLAIVSIVVITPFLFRHIWRSRFTHLEDLPHPQINHPKVLMAGGVIITLVLIFFVIGESLPVPIPPASVALMGACLALLLASQSKIDTVHNILRDVDWSTLIFFMSIFVIIGSLEKTGVTASLAQLLAVVVGQNIAFGAIVLVFTVGLLSSVVPNIPLVVAMVPLLKQYVVNIGFAGPEILGANFDGQLPAEVLPLFYAMMFGATLGGNGTLVGASSNIVAAGISEQHGRPISFHRFLRYGLPVMAVQLVVAALFVAWLMFTQQG”, the protein production entry is “failed”. In the case of “MVANLVTVVIVNYNSGEMLGKCVEHLLKSTVPIQIIISDNASSDNSLALLEQSELNKQTITIHRNNSNYGFSYANNAVFTKISTPFILYLNPDCFVENDTIENLLHTMHQHNDAGMVGCLVNNMDGSVQIGCCGLTPTPARVLNQLLKLSKIFPNNSKFGGYLFSKEKLPTKPTEVELISGSCMFVRKKAIDEVGLLDDNYFLYCEDYDWFYRFTQSNWKIIFNPNTKVTHIKSFSTKQIPFKVLLYKAKGMWRFYNKFFKENSSPATTLIIRVGIIARFFSLSGLLLFKKLLRTTS”, the protein production result was “failed”. Next, “MVAYPGPMPRSPSPGQTPDAPTSGGGSTDSTRQRIVAAAKEEFARHGIAGARVDRIAKQARTSKERVYAYFRSKEALYAHVAERETTALIEATQLDPADLPGYAGILFDHFAARPDHYRLITWGRLELAESADNTSGPLQATIAGKLDKLRDAQRIGLLDPAWDPVDVLALINQIAMTWAGQPEIAAAAADQAVDPSVTARRAALVTAVEHMFPRPDRDQRPNRLT”: “not failed”. Next, “MVDISLIIGGPQGGGIESAGQIAIKSMVLLGYEVLGSREYHSNIMGAHSYYHLRVQQHRPRSLKLPVDGVLALDAESVFTHFRDVRPGGILVYDPGTKSTRVDAIQPMAGPLKKRLKSLFDSRGMQPVVESAVKLAEEAGARIVGLPLKEMLKTLSERTGAPVARVSRALNTLGLASMLYMLGVPVEYIEKAISLQFAGKEKVINMNVEAVRIAVDYVREAFGEPESRLPPGPRRGQTMMVATGNDLVAMGKIVGGLGVITYYPITPSSDEALYVEKHSYISIDGPLAEKLGYDKIAVAIVQMEDELASINAVLGAAAAGARASTTTSGPGFSLMNEAVSLAVEAEIPVVVTLWMRAGPSTGMPTRTGQQDLLHSIFSGHGDAPKIVLASGDHVEAFYDAIKAFNWAEEFQTPVIHLLDKYLASSMVSLAREDLDPSKVPITRGKLLDNPPADYRRYEVVEDGISPRARLGSATMVITGLEHDEYGYATEDPVMREIMMFKRERKFKVIEERIPDEEKAVLHGDSEASVALVSFGSTKQPILEALEMLRDEGVRARFAQVRLLYPFPGRLVEEMLEGVEKVIMVEQNLLGQLAMLLRAHTSIKPDSSIVKINGRPLYSFEVAGAVKRILETGEERVVVSHGS”: “failed”; “MVDKGVVNNVDECVEGTDHCHIDAICQNTPRSYKCICKSGYTGDGKHCKDVDECEREDNAGCVHDCVNIPGNYRCTCYDGFHLAHDGHNCLDVDECAEGNGGCQQSCVNMMGSYECHCRDGFFLSDNQHTCIQRPEEGMNCMNKNHGCAHICRETPKGGIACECRPGFELTKNQRDCKLTCNYGNGGCQHTCDDTEQGPRCGCHVKFVLHTDGKTCIETCAVNNGGCDSKCHDAATGVHCSCPVGFMLQPDRKTCKDIDECRLHNGGCDHICRNTVGSFECSCKKGYKLLINERSCQDIDECSFDRTCDHMCVNTPGSFQCLCHRGYLLYGISHCGDVDECSINKGGCRFGCINTPGSYQCTCPAGQGRLHWNGKDCTEPVKCQSSSGASKAMLSCSRSGKKDTCALTCPSRARFLPESENGFTVSCGTPSPKAAAGRAIHPGNSTISNSCHEAAVLPVKQRASFKIKDAKCRLHLRNKGKAEEASGRTPGPGGASCSDCQVTFIHLKCDSSRKGKGRRARTPPGKEVTRLTLELEAEVRAEETTAGCGLTCLRQRMERRLKGSLKMLRKSINQDRFLLRLAGLDYELAHKPGLAAGDRAELVEVCRPGQHRAGTKCVSCPQGTYYHGQTEQCVPCPAGTFQEREGQLSCDLCPGSDAHGPLGATNVTTCAGQCPPGQHSGDGFKPCQPCPRGTYQPEAGRTLCFPCGGGLTTKHEGAVSFQDCDTKVQCSPGHYYNTSIHRCIRCAVGSYQPDFRQNFCTRCPGNTSADFDGSTSVAQCKNRQCGGELGEFTGYIESPNYPGNYPAGVECIWNINPPPKRKILIVVPEIFLPSEDECGDVLVMRKNSSPSSITTYETCQTYERPIAFTARSRKLWINFKTSEANSARGFQIPYVTYDEDYEQLVEDIVRDGRLYASENHQEILKDKKLIKAFFEVLAHPQNYFKYTEKHKEMLPKSFIKLLRSKVSSFLRPYK”: “failed”; “MVDLGKQRDHNYHHMQIITTPTSVDCSREFRHRRTLRSLIECMIPYCCTYQQQPYQNDTLSVSSTSSSSSSSDHSSSSQSSSTVSGTFFGHRRGRVSFCLQDAAVGSSPLLLLELAVPTAALAKEMDEEGVLRIALECDRRRSSNSRSSSIFDVPVWSMFCNGRKMGFAVRRKVTENDAVFLRMMQSVSVGAGVVPSEEEDQMLYLRARFERVTGSSDSESFHMMNPGGSYGQELSIFLLRS”: “failed”. As for “MVDNKKKRQYPLVPLSVIQSALEEDPISIKMILKHYHSYIVKLCLTNGFNEAEQFITYVDEYMLRQLEIKLIEAILKFKINLEHHHHHH”, the protein production entry is on record as “failed”. Then “MVDPNEHKKAVKTQQQDDEQTFEAVARAWHTDNKKWSESHAERILKSLSDNIFPAIGGTHVANLKTRDLLTPIKSVERSGRLEVAKRLKQRVTAIMTYAVQNGLIDYNPAQDMAGAIMPGKVEHRLEHHHHHH”, with “failed”; and “MVDQQDTFAEYFKNWYIFYKKPKVSKVTLNRYQYTYNVINEYFGNKLLKDITRANYQKFIVKYGQNHSPNTMKMINNCIKACVKNAVYDEEIKKDFTYNIELISNRLEHHHHHH”, with “failed”. Next, “MVDSHVHTPLCGHAEGHPEAYLEEARAKGLKGVVFTDHSPMPPWYDPESRMRLEALPFYLLALERVRERAQDLYVGIGLEADFHPGTEGFVAQLLRRYPFDYVIGSVHYLGAWPLDHPDHQEEYAWRDLKEVFRAYFQEVEKAARSGLFHAIGHLDLPKKFGHRLPEEALLELAEPALRAVAEAGLFLDVNTAGLRRPAKEVYPAPALLRRARELGIGLVLGSDAHRPEEVGFAFPEVQALLAGLGFREAYYFVEGSPVAYPLSRASLEHHHHHH”: “not failed”. Next, “MVEAIIFDMDGVLFDTEKYYYDRRASFLGQKGISIDHLPPSFFIGGNTKQVWENILRDEYDKWDVSTLQEEYNTYKQNNPLPYKELIFPDVLKVLNEVKSQGLNIGLASSSVKADIFRALEENRLQAFFDIVLSGEEFKESKPNPEIYLTALKQLNVQASRALIIEDSEKGIAAGVAADVEVWAIRDNLFGMDQSAAKGLLDSLTDVLDLIK”: “not failed”; “MVEPSLVLYGAPYERAVEVLEETLRETGARYALLIDRKGFVLAHKEALWAPKPPPLDTLVTLVAGNAAATQALAKLLGEARFQEEVHQGERMGLYVDEAGEHALLVLVFDETAPLGKVKLHGKRAAEALARIAEEALANPPRLALDTEYREGAEALLDDLLRN”: “not failed”; “MVESWALTTPPIDIVNQYLFFIKRKTNYMATYYYALASQKFLLEEEPFEEVLKERRRDYGEKNKEIDFWQVIQPAFLNAPELAEAKAKAPEKNVAIVSTNKSFIVWVKLRLEYVLTGEFEAPSDAIPDPLASLDLEHHHHHH”: “failed”.

As for “MVEVESDSVAERDRSSFLAGHDAIRLAKSCVDSPPERWYAALYQVYADLTKLRCWSNVEVVYSDSATFPTGLLGPLFEEDSMVQELHSAQCILGSERACFHVRCCIVGSPPSGRAINALSPQSETRTEERIITSRREPEVVIAVPMHAMLKLSNLDQALRMSSHIEGIVKNRHVADSSASTHSTDRQAGSRKSSVIFGFVDEDTTTAYYRIREGACESNDRREFSTDDIASCLAQERT”, the protein production entry is on record as “not failed”. Then “MVFDAIVVTDLQGFIIDWNKGSETLYGYSKEQAIGQPVNMLHVPGDTEHITSEVISAVENQGKWTGEIRMLHKDGHIGWIESMCVPIYGENYQMVGALGINRDITKRKKELEHHHHHH”, with “failed”; and “MVGEEDSERAQSSKMEIERESNLGSASVLMQSKVISVSNFFSIHRFHYPREKIVSFLFPSVFSRIMASYGEEREIQKNYWKEHSVGLSVEAMMLDSKASDLDKEERPEILAFLPPIEGTTVLEFGAGIGRFTTELAQKAGQVIAVDFIESVIKKNENINGHYKNVKFLCADVTSPNMNFPNESMDLIFSNWLLMYLSDQEVEDLAKKMLQWTKVGGYIFFRESCFHQSGDNKRKYNPTHYREPKFYTKLFKECHMNDEDGNSYELSLVSCKCIGAYVRNKKNQNQICWLWQKVSSDNDRGFQRFLDNVQYKSSGILRYERVFGEGFVSTGGLETTKEFVDMLDLKPGQKVLDVGCGIGGGDFYMAENFDVDVVGIDLSVNMISFALEHAIGLKCSVEFEVADCTKKEYPDNTFDVIYSRDTILHIQDKPALFRRFYKWLKPGGKVLITDYCRSPKTPSPDFAIYIKKRGYDLHDVQAYGQMLRDAGFEEVIAEDRTDQFMKVLKRELDAVEKEKEEFISDFSKEDYEDIIGGWKSKLLRSSSGEQKWGLFIAKRN”, with “failed”. Then “MVGNVRHYLFYANSSELQQQMMNRKSHFNLSQTTQEWLIGKGYNPEDLEQPGENGDSALMKATREGVDAVVKELIDLGVDINARNNDNNNALWFACFGNHYDLIHLLLAAKINIDNQNDNGATVLMYAASAGKTEVVKLLLQYHPNLYLRNLDDFQAIDFASNVEVLRLLKNATK”, with “failed”.

Consider “MVGQIAKEMGLRAYIVGGVVRDILLGKEVWDVDFVVEGNAIELAKELARRHGVNVHPFPEFGTAHLKIGKLKLEFATARRETYPRPGAYPKVEPASLKEDLIRRDFTINAMAISVNLEDYGTLIDYFGGLRDLKDKVIRVLHPVSFIEDPVRILRALRFAGRLNFKLSRSTEKLLKQAVNLGLLKEAPRGRLINEIKLALREDRFLEILELYRKYRVLEEIIEGFQWNEKVLQKLYALRKVVDWHALEFSEERIDYGWLYLLILISNLDYERGKHFLEEMSAPSWVRETYKFMKFKLGSLKEELKKAKENYEVYRLLKPLHTSVLLLLMLEEELKEKIKLYLEKLRKVKLPKEKIEELKKQGLKGKELGERIEELKREIMNKIKLAAALE”, for which the protein production entry is “not failed”.

On to “MVGQVIRKRGAYPEYTVEDVLAVIFLLKEPLGRKQISERLELGEGSVRTLLRKLSHLDIIRSKQRGHFLTLKGKEIRDKLLSMFSEPIGVSVDGYPGIAIVVKNPPEFKSIELRDEAIKFDAKGAMILTVKDNEIVFPEDFRPLKEMYPEVAKKIVDYEDGDAVIITWAETPAKALKSAIHVAYILKKEEITPEILEVVK”, for which the protein production result is “not failed”. Then “MVGSSETETKEHREAEERSSRESATATGKVSGKENELRPTYVYLLMMPENHNVDVQQTLQEQRKRNIKKARIEARLKLDQIRPTVVLENSRATKMMIEWGFTDFRKLQGSNLGNKKWICWVRKHCC”, with “not failed”.

For the origin of these results see a protein production outcome set (Wang et al. 2014).
